Test results from US11407825B2, “NaPi2b-targeted polymer antibody-drug conjugates and methods of use thereof” (Mersana Therapeutics, Inc., priority 2018, dated 2022).

Test: Phase 1b dose escalation study of XMT-1536: safety and tolerability (adverse events, DLT)
Type: in vivo, human
From the text: The study presented herein is an open label, multi-center Phase 1b study of XMT-1536 administered as an intravenous infusion once every three or four weeks. The dose escalation (DES) part of the study will establish the maximum tolerated dose (MTD) or recommended Phase 2 dose (RP2D) for XMT-1536 in patients with a number of tumor types likely to express NaPi2b, with a focus on patients with platinum-resistant ovarian cancer and non-squamous non-small cell lung cancer (NSCLC). […] The RP2D may differ from the MTD and may take into account tolerability, pharmacokinetic and pharmacodynamic measures, and efficacy of XMT-1536 based on RECIST 1.1. After the first cycle, patients may continue to receive XMT-1536 until disease progression provided the drug is well-tolerated and patients continue to derive clinical benefit in the opinion of the Investigator. The DES segment of the study utilized an accelerated titration design. The first 3-week cycle of treatment constitutes the dose limiting toxicity (DLT) evaluation period. For the first two dose levels, a minimum of 1 patient was treated at each dose level. If this patient experiences a treatment-emergent adverse event of Grade 2 or higher, 2 additional patients will be added at this dose level, and the study will subsequently follow a 3+3 design, as described below. […] Starting with Dose Level 3, the study will follow a standard 3+3 design, with 3 patients enrolled initially at each dose level. […] However, in the event of 1 DLT, 3 additional patients will be enrolled at the same dose level. Any dose level with 2 or more DLTs will be considered to exceed the MTD and subsequent patients will be enrolled at lower dose level(s). After the first cycle, patients may continue to receive XMT-1536 until disease progression if the drug is well-tolerated and patients continue to derive clinical benefit in the opinion of the Investigator.
After an August 2018 protocol amendment, each cycle will be 4-week (28 day) dose cycle. The first two, 4-week cycles of treatment (56 days) constitutes the dose limiting toxicity (DLT) evaluation period. Beginning with this amendment, up to 10 patients will be enrolled for evaluation at 20.0 mg/m^2 under the new 4-week cycle dose regimen. If that dose is cleared by the SRC, subsequent dose groups will follow a modified 3+3 design. Three patients will be enrolled initially and if toxicity issues arise, the SRC will review all pertinent data and may decide to add more patients to fully evaluate a dose in question and/or lower the dose. […] The observation period for DLTs is 56 days, between Day 1 through the end of Cycle 2 which includes the pre-dose assessments before receiving the Cycle 3 dose. A maximum of ten patients will be enrolled per dose level prior to the SRM. that will be conducted no later than 5 days after at least the sixth patient dosed in each level has completed Cycle 2, Day 28 evaluations. The data available for the patients dosed in all prior will be factored into the data review for each applicable dose escalation SRM. Any dose level with 2 or more DLTs occurring in 6 or fewer treated patients will be considered to exceed the MTD and subsequent patients will be enrolled at lower dose level(s). After the second cycle, patients may continue to receive XMT-1536 until disease progression if the drug is well-tolerated and patients continue to derive clinical benefit in the opinion of the Investigator. After completion of DES, the EXP segment of the study will be opened.
All adverse events will be graded according to the National Cancer Institute (NCI) Common Terminology Criteria version (CTCAE v4.03). The observation period for DLTs is 56 days, between Day 1 through end of Cycle 2 which includes the pre-dose assessments before receiving the Cycle 3 dose. […]

B1: XMT-1536: about 10-15 molecules of auristatin F-hydroxypropyl amide conjugated to a cysteine moiety of NaPi2b monoclonal antibody XMT-1535 via a PHF scaffold (conjugate, chains of the INN, looked up)
VH: QVQLVQSGAEVVKPGASVKMSCKASGYTFTGYNIHWVKQAPGQGLEWIGAIYPGNGDTSYKQKFRGRATLTADTSTSTVYMELSSLRSEDSAVYYCARGETARATFAYWGQGTLVTVSS
VL: DIQMTQSPSSLSASVGDRVTITCSASQDIGNFLNWYQQKPGKTVKVLIYYTSSLYSGVPSRFSGSGSGTDYTLTISSLQPEDFATYYCQQYSKLPLTFGQGTKLELK
modifications: auristatin F-hydroxypropyl amide via PHF scaffold
notes: about 10-15 molecules of auristatin F-hydroxypropyl amide conjugated to a cysteine moiety of NaPi2b monoclonal antibody XMT-1535 via a PHF scaffold
30 mg/m^2, 28-day cycle, as of August 2019
  number of DLT: One
30 mg/m^2, 28-day cycle, as of February 2019
  number of DLT: one
36 mg/m^2, 28-day cycle, as of August 2019
  number of DLT: one
40 mg/m^2, 21-day cycle, as of February 2019
  number of DLT: One
DL4 (20 mg/m^2)
  possible treatment related SAE: Grade 3 cardiac failure congestion
DL 4, 21-day cycle, as of February 2019
  SAE related to study drug: congestive heart failure
DL5 (30 mg/m^2)
  possible treatment related SAE: Grade 2 pyrexia
DL 5, 30 mg/m^2, 21-day cycle, as of February 2019
  SAE related to study drug: pyrexia
DL 5A
  ALT or bilirubin elevation: no elevation of ALT or bilirubin
  time for AST elevation to return to Grade 1: ≤ 13 days
  time for AST elevation to return to Grade 2: ≤ 7 days
DL 5A, alkaline phosphatase
  finding accompanying AST elevation: Grade 1 alkaline phosphatase elevation
DL 5A, cycle 1, day 8
  dose limiting toxicity: Grade 3 AST
DL6
  bilirubin elevation: no elevation of bilirubin
  time for ALT elevation to resolve to Grade 1: ≤ 8 days
  time for AST elevation to return to Grade 1: ≤ 21 days
DL6, ALT
  finding accompanying AST elevation: Grade 2 ALT elevation
DL6, alkaline phosphatase
  finding accompanying AST elevation: Grade 1 alkaline phosphatase elevation
DL6, cycle 1, day 8
  dose limiting toxicity: Grade 3 AST
TRAE, N = 37, May 10, 2019
  Aspartate aminotransferase (AST) increased Grade 1, patients: 3
  Aspartate aminotransferase (AST) increased Grade 1, percent of patients: (8) %
  Aspartate aminotransferase (AST) increased Grade 2, patients: 2
  Aspartate aminotransferase (AST) increased Grade 2, percent of patients: (5) %
  Aspartate aminotransferase (AST) increased Grade 3, patients: 4
  Aspartate aminotransferase (AST) increased Grade 3, percent of patients: 11%
  Aspartate aminotransferase (AST) increased Total, patients: 9
  Aspartate aminotransferase (AST) increased Total, percent of patients: (24) %
  Blood alkaline phosphatase increased Grade 1, patients: 6
  Blood alkaline phosphatase increased Grade 1, percent of patients: (16) %
  Blood alkaline phosphatase increased Grade 2, patients: 0
  Blood alkaline phosphatase increased Grade 3, patients: 0
  Blood alkaline phosphatase increased Total, patients: 6
  Blood alkaline phosphatase increased Total, percent of patients: (16) %
  Decreased appetite Grade 1, patients: 1
  Decreased appetite Grade 1, percent of patients: (3) %
  Decreased appetite Grade 2, patients: 6
  Decreased appetite Grade 2, percent of patients: (16) %
  Decreased appetite Grade 3, patients: 0
  Decreased appetite Total, patients: 7
  Decreased appetite Total, percent of patients: (19) %
  Fatigue Grade 1, patients: 4
  Fatigue Grade 1, percent of patients: (11) %
  Fatigue Grade 2, patients: 7
  Fatigue Grade 2, percent of patients: (19) %
  Fatigue Grade 3, patients: 0
  Fatigue Total, patients: 11
  Fatigue Total, percent of patients: (30) %
  Gamma-glutamyltransferase (GGT) increased Grade 1, patients: 3
  Gamma-glutamyltransferase (GGT) increased Grade 1, percent of patients: (8) %
  Gamma-glutamyltransferase (GGT) increased Grade 2, patients: 1
  Gamma-glutamyltransferase (GGT) increased Grade 2, percent of patients: (3) %
  Gamma-glutamyltransferase (GGT) increased Grade 3, patients: 0
  Gamma-glutamyltransferase (GGT) increased Total, patients: 4
  Gamma-glutamyltransferase (GGT) increased Total, percent of patients: (11) %
  Headache Grade 1, patients: 5
  Headache Grade 1, percent of patients: (14) %
  Headache Grade 2, patients: 5
  Headache Grade 2, percent of patients: (14) %
  Headache Grade 3, patients: 0
  Headache Total, patients: 10
  Headache Total, percent of patients: (27) %
  Myalgia Grade 1, patients: 3
  Myalgia Grade 1, percent of patients: (8) %
  Myalgia Grade 2, patients: 1
  Myalgia Grade 2, percent of patients: (3) %
  Myalgia Grade 3, patients: 0
  Myalgia Total, patients: 4
  Myalgia Total, percent of patients: (11) %
  Nausea Grade 1, patients: 12
  Nausea Grade 1, percent of patients: (32) %
  Nausea Grade 2, patients: 2
  Nausea Grade 2, percent of patients: (5) %
  Nausea Grade 3, patients: 0
  Nausea Total, patients: 14
  Nausea Total, percent of patients: (38) %
  Pyrexia Grade 1, patients: 3
  Pyrexia Grade 1, percent of patients: (8) %
  Pyrexia Grade 2, patients: 1
  Pyrexia Grade 2, percent of patients: (3) %
  Pyrexia Grade 3, patients: 0
  Pyrexia Total, patients: 4
  Pyrexia Total, percent of patients: (10) %
  Vomiting Grade 1, patients: 4
  Vomiting Grade 1, percent of patients: (11) %
  Vomiting Grade 2, patients: 1
  Vomiting Grade 2, percent of patients: (3) %
  Vomiting Grade 3, patients: 0
  Vomiting Total, patients: 5
  Vomiting Total, percent of patients: (14) %
As of February 2019
  grade of treatment-related adverse events (TRAEs): Grade 1 or 2
  most common TRAEs: anemia, arthralgias, fatigue, vomiting, anorexia, AST increase, diarrhea, dyspnea (unrelated or unlikely related), hypoalbuminema (unrelated or unlikely related), hypoxia (unrelated), headache, nausea, proteinuria and vomiting
  number of SAEs related to study drug: Two
As of May 10, 2019
  Grade 4 or 5 TRAE: no Grade 4 or 5 TRAE
  grade of adverse events: most adverse events being Grade 1 or 2
  number of SAEs unrelated or unlikely related to treatment: Seventeen
  number of possible treatment related SAEs: Two
  patients with SAEs unrelated or unlikely related to treatment: 11
  tolerability: well tolerated
  toxicities often associated with microtubule-targeting agents or ADCs (neutropenia, ocular toxicities, peripheral neuropathy): Low rate
At DL 5A (30 mg/m^2) and DL 6 (40 mg/m^2)
  number of dose limiting toxicities: Two
conclusions
  MTD / RP2D: Neither MTD nor RP2D has been identified
Maximum doses administered (40 mg/m^2)
  tolerability: well tolerated
Up to the 30 mg/m^2 or 36 mg/m^2 or 43 mg/m^2 dose level
  tolerability: well-tolerated
